Results from the supplement of paper PMC12458215.
± gives the uncertainty stated by the source.

Test system: HEK293T
Experiment: plasma membrane surface immunostaining intensity (anti-HA, deep receptor scanning) (arbitrary fluorescence units); higher = higher plasma membrane expression

Sequence | plasma membrane surface immunostaining intensity (GPCR class: A) | further results
MPKLNSTFVTEFLFEGFSSFRRQHKLVFFVVFLTLYLLTLSGNVIIMTIIRLDHHLHTPMYFFLCMLSISETCYTVAIIPHMLSGLLNPHQPIATQSCATQLFFYLTFGINNCFLLTVMGYDRYVAICNPLRYSVIMGKRACIQLASGSLGIGLGMAIVQVTSVFGLPFCDAFVISHFFCDVRHLLKLACTDTTVNEIINFVVSVCVLVLPMGLVFISYVLIISTILKIASAEGQKKAFATCASHLTVVIIHYGCASIIYLKPKSQSSLGQDRLISVTYTHHSPTEPCCVQPEEQGGQRCSAQSRGAKNSVSLMKRGCEGFSFAFINMY [OR10J3] |  | plasma membrane surface immunostaining intensity (GPCR class: A (Olfactory)): 164 ± 60
MEHTHAHLAANSSLSWWSPGSACGLGFVPVVYYSLLLCLGLPANILTVIILSQLVARRQKSSYNYLLALAAADILVLFFIVFVDFLLEDFILNMQMPQVPDKIIEVLEFSSIHTSIWITVPLTIDRYIAVCHPLKYHTVSYPARTRKVIVSVYITCFLTSIPYYWWPNIWTEDYISTSVHHVLIWIHCFTVYLVPCSIFFILNSIIVYKLRRKSNFRLRGYSTGKTTAILFTITSIFATLWAPRIIMILYHLYGAPIQNRWLVHIMSDIANMLALLNTAINFFLYCFISKRFRTMAAATLKAFFKCQKQPVQFYTNHNFSITSSPWISPANSHCIKMLVYQYDKNGKPIKVSP [GPR139] | 3010 ± 800 | 
MQGLNHTSVSEFILVGFSAFPHLQLMLFLLFLLMYLFTLLGNLLIMATVWSERSLHMPMYLFLCALSITEILYTVAIIPRMLADLLSTQRSIAFLACASQMFFSFSFGFTHSFLLTVMGYDRYVAICHPLRYNVLMSLRGCTCRVGCSWAGGLVMGMVVTSAIFHLAFCGHKEIHHFFCHVPPLLKLACGDDVLVVAKGVGLVCITALLGCFLLILLSYAFIVAAILKIPSAEGRNKAFSTCASHLTVVVVHYGFASVIYLKPKGPQSPEGDTLMGITYTVLTPFLSPIIFSLRNKELKVAMKKTCFTKLFPQNC [OR10H5] |  | plasma membrane surface immunostaining intensity (GPCR class: A (Olfactory)): 129 ± 21
MDSGPLWDANPTPRGTLSAPNATTPWLGRDEELAKVEIGVLATVLVLATGGNLAVLLTLGQLGRKRSRMHLFVLHLALTDLAVALFQVLPQLLWDITYRFQGPDLLCRAVKYLQVLSMFASTYMLLAMTLDRYLAVCHPLRSLQQPGQSTYLLIAAPWLLAAIFSLPQVFIFSLREVIQGSGVLDCWADFGFPWGPRAYLTWTTLAIFVLPVTMLTACYSLICHEICKNLKVKTQAWRVGGGGWRTWDRPSPSTLAATTRGLPSRVSSINTISRAKIRTVKMTFVIVLAYIACWAPFFSVQMWSVWDKNAPDEDSTNVAFTISMLLGNLNSCCNPWIYMGFNSHLLPRPLRHLACCGGPQPRMRRRLSDGSLSSRHTTLLTRSSCPATLSLSLSLTLSGRPRPEESPRDLELADGEGTAETIIF [AVPR1B] | 665 ± 110 | 
MQRPGPRLWLVLQVMGSCAAISSMDMERPGDGKCQPIEIPMCKDIGYNMTRMPNLMGHENQREAAIQLHEFAPLVEYGCHGHLRFFLCSLYAPMCTEQVSTPIPACRVMCEQARLKCSPIMEQFNFKWPDSLDCRKLPNKNDPNYLCMEAPNNGSDEPTRGSGLFPPLFRPQRPHSAQEHPLKDGGPGRGGCDNPGKFHHVEKSASCAPLCTPGVDVYWSREDKRFAVVWLAIWAVLCFFSSAFTVLTFLIDPARFRYPERPIIFLSMCYCVYSVGYLIRLFAGAESIACDRDSGQLYVIQEGLESTGCTLVFLVLYYFGMASSLWWVVLTLTWFLAAGKKWGHEAIEANSSYFHLAAWAIPAVKTILILVMRRVAGDELTGVCYVGSMDVNALTGFVLIPLACYLVIGTSFILSGFVALFHIRRVMKTGGENTDKLEKLMVRIGLFSVLYTVPATCVIACYFYERLNMDYWKILAAQHKCKMNNQTKTLDCLMAASIPAVEIFMVKIFMLLVVGITSGMWIWTSKTLQSWQQVCSRRLKKKSRRKPASVITSGGIYKKAQHPQKTHHGKYEIPAQSPTCV [FZD10] |  | plasma membrane surface immunostaining intensity (GPCR class: F): 2420 ± 580
MPPSISAFQAAYIGIEVLIALVSVPGNVLVIWAVKVNQALRDATFCFIVSLAVADVAVGALVIPLAILINIGPQTYFHTCLMVACPVLILTQSSILALLAIAVDRYLRVKIPLRYKMVVTPRRAAVAIAGCWILSFVVGLTPMFGWNNLSAVERAWAANGSMGEPVIKCEFEKVISMEYMVYFNFFVWVLPPLLLMVLIYLEVFYLIRKQLNKKVSASSGDPQKYYGKELKIAKSLALILFLFALSWLPLHILNCITLFCPSCHKPSILTYIAIFLTHGNSAMNPIVYAFRIQKFRVTFLKIWNDHFRCQPAPPIDEDLPEERPDD [ADORA1] | 6412 ± 62 | 
MLSTSRSRFIRNTNESGEEVTTFFDYDYGAPCHKFDVKQIGAQLLPPLYSLVFIFGFVGNMLVVLILINCKKLKCLTDIYLLNLAISDLLFLITLPLWAHSAANEWVFGNAMCKLFTGLYHIGYFGGIFFIILLTIDRYLAIVHAVFALKARTVTFGVVTSVITWLVAVFASVPGIIFTKCQKEDSVYVCGPYFPRGWNNFHTIMRNILGLVLPLLIMVICYSGILKTLLRCRNEKKRHRAVRVIFTIMIVYFLFWTPYNIVILLNTFQEFFGLSNCESTSQLDQATQVTETLGMTHCCINPIIYAFVGEKFRSLFHIALGCRIAPLQKPVCGGPGVRPGKNVKVTTQGLLDGRGKGKSIGRAPEASLQDKEGA [CCR2] | 137 ± 20 | 
MAMTWIVFSLWPLTVFMGHIGGHSLFSCEPITLRMCQDLPYNTTFMPNLLNHYDQQTAALAMEPFHPMVNLDCSRDFRPFLCALYAPICMEYGRVTLPCRRLCQRAYSECSKLMEMFGVPWPEDMECSRFPDCDEPYPRLVDLNLAGEPTEGAPVAVQRDYGFWCPRELKIDPDLGYSFLHVRDCSPPCPNMYFRREELSFARYFIGLISIICLSATLFTFLTFLIDVTRFRYPERPIIFYAVCYMMVSLIFFIGFLLEDRVACNASIPAQYKASTVTQGSHNKACTMLFMILYFFTMAGSVWWVILTITWFLAAVPKWGSEAIEKKALLFHASAWGIPGTLTIILLAMNKIEGDNISGVCFVGLYDVDALRYFVLAPLCLYVVVGVSLLLAGIISLNRVRIEIPLEKENQDKLVKFMIRIGVFSILYLVPLLVVIGCYFYEQAYRGIWETTWIQERCREYHIPCPYQVTQMSRPDLILFLMKYLMALIVGIPSVFWVGSKKTCFEWASFFHGRRKKEIVNESRQVLQEPDFAQSLLRDPNTPIIRKSRGTSTQGTSTHASSTQLAMVDDQRSKAGSIHSKVSSYHGSLHRSRDGRYTPCSYRGMEERLPHGSMSRLTDHSRHSSSHRLNEQSRHSSIRDLSNNPMTHITHGTSMNRVIEEDGTSA [FZD3] |  | plasma membrane surface immunostaining intensity (GPCR class: F): 177 ± 57
MRTLNTSAMDGTGLVVERDFSVRILTACFLSLLILSTLLGNTLVCAAVIRFRHLRSKVTNFFVISLAVSDLLVAVLVMPWKAVAEIAGFWPFGSFCNIWVAFDIMCSTASILNLCVISVDRYWAISSPFRYERKMTPKAAFILISVAWTLSVLISFIPVQLSWHKAKPTSPSDGNATSLAETIDNCDSSLSRTYAISSSVISFYIPVAIMIVTYTRIYRIAQKQIRRIAALERAAVHAKNCQTTTGNGKPVECSQPESSFKMSFKRETKVLKTLSVIMGVFVCCWLPFFILNCILPFCGSGETQPFCIDSNTFDVFVWFGWANSSLNPIIYAFNADFRKAFSTLLGCYRLCPATNNAIETVSINNNGAAMFSSHHEPRGSISKECNLVYLIPHAVGSSEDLKKEEAAGIARPLEKLSPALSVILDYDTDVSLEKIQPITQNGQHPT [DRD1] | 1460 ± 310 | 
MRPPSPLPARWLCVLAGALAWALGPAGGQAARLQEECDYVQMIEVQHKQCLEEAQLENETIGCSKMWDNLTCWPATPRGQVVVLACPLIFKLFSSIQGRNVSRSCTDEGWTHLEPGPYPIACGLDDKAASLDEQQTMFYGSVKTGYTIGYGLSLATLLVATAILSLFRKLHCTRNYIHMHLFISFILRAAAVFIKDLALFDSGESDQCSEGSVGCKAAMVFFQYCVMANFFWLLVEGLYLYTLLAVSFFSERKYFWGYILIGWGVPSTFTMVWTIARIHFEDYGCWDTINSSLWWIIKGPILTSILVNFILFICIIRILLQKLRPPDIRKSDSSPYSRLARSTLLLIPLFGVHYIMFAFFPDNFKPEVKMVFELVVGSFQGFVVAILYCFLNGEVQAELRRKWRRWHLQGVLGWNPKYRHPSGGSNGATCSTQVSMLTRVSPGARRSSSFQAEVSLV [VIPR1] |  | plasma membrane surface immunostaining intensity (GPCR class: B): 5730 ± 200
